# Measurements as given in the DeepSol protein solubility set.
# Experiment: soluble on expression in E. coli; label from the status in PepcDB or PDB records
row,Sequence,soluble on expression in E. coli
1,MFQPEKIDPEEATAAIAEVAYIVTVSDYIGNVIRSLYPQASPKLRTIYSVVDSERFLPGNHPKMQKIRNDIRRAHGLENKTVILFAGRLSRNKGVDKLILALPELAKKFKNLALVIVGSNWFSENDITDYVAYVRALAKRMPVPVVTTGFVPPNEIQNWFAAADLFVCTSQWQEPLARVHYEAMAAGLPIVTTARGGNPEVIFANENGLIVENPEDPSDFANKIAQILSDQSLMRRMGEKGRQLAISIYHWERVASELLEVWEQAEKTEQAVVSEEQAAGMTIEPLKEDATEQLNGPTPKADAKEKVHSKKNAAASSNKTKKGKAKKERAISMEDHQQTAKQKEAAAERTELAKSAPAPKQPQTGRHIKPFTIASGNQQTLDASPKTHLNRKLAQAKHDTKHFTIASSH,not soluble
2,MFQRKTLQRRNLKGLNLNLHPDVGNNGQLQEKTETHQGQSRIEGHVMSNINAIQNNSNLFLRRGIKKKLTLDAFGDDQAISKPNTVVIQQPQNEPVLVLSSLSQSPCVSSSSSLSTPCIIDAYSNNFGLSPSSTNSTPSTIQGLSNIATPVENEHSISLPPLEESLSPAAADLKDTLSGTSNGNYIQLQDLVQLGKIGAGNSGTVVKALHVPDSKIVAKKTIPVEQNNSTIINQLVRELSIVKNVKPHENIITFYGAYYNQHINNEIIILMEYSDCGSLDKILSVYKRFVQRGTVSSKKTWFNELTISKIAYGVLNGLDHLYRQYKIIHRDIKPSNVLINSKGQIKLCDFGVSKKLINSIADTFVGTSTYMSPERIQGNVYSIKGDVWSLGLMIIELVTGEFPLGGHNDTPDGILDLLQRIVNEPSPRLPKDRIYSKEMTDFVNRCCIKNERERSSIHELLHHDLIMKYVSPSKDDKFRHWCRKIKSKIKEDKRIKREALDRAKLEKKQSERSTH,not soluble
3,MFQWLYDVLWLLAPIWIRRYLDKRSGSAPAYRAHRDERFGKPHPNPVTGAVWIHAVSVGETRAAQPLIRELRRRFPDAPLLMTQMTPTGRETAQVLFPDAQCRYLPYDKKTWVRQFLREHRPMFGILMETEIWPNLMKECRRAGVPLFLANARLSEKSLNGYLKVRRLIRPAAASLTGCLAQTEADAARLAKLGAASVQVCGNTKYDLMPSEDMKTLAGQFEKRIGGRPVAVCGSTRVYRGEDEAEKLLAAWQQYRGDALLAVVPRHPEHFQTTFETAKRFGFKVQRRSDGLPVEPDTQVWVGDSMGELYAYYLCADVAFVGGSLVGSGCQNIIEPLSCGVTTIFGFSTYNFSEACRHALASGAAVQVESADAWREAVEKTLSGEGGGMQMQARVDGFIAQHRGAGARIAEAVREAVCGHRGRLEHHHHHH,not soluble
4,MFRQLSELYISTLKEAKERSPPNFDDTPRGLLLALIKDRPTIWNSSARLTKDDVLASFQQCSAILSNMDPGYSIWAVIEKWCWVVESYVRCSVTAPPSEWRYNNTLDYLKQFATTSYPYLGCLSKKRRNELTKLYNDPEINVVMQKTEEIEFPVGIFRDEMLYLSGEDHLMQYDLELRTVGQVVNAKRRGRPSKVDKRSPVDNFYNLTPQSAQFQKLLESNMSSAFSIAFAESELIPDDLGFSPAMYMALIDMIQDKPELWQSNHPQKDNLQAQEQLFEDFGKQLIIKFRDTADISVLEKLTGPYVHLVWERLLEKFKEEDSLETVSKWKYYQVGSAGLSARLAIASPSGSSQSEDSRMAASSPSTAFIGMPTTINGNKSIQTVLDNLIAARSKKEDHAASTTSVLQAPNYSELKQMLEKNNILKVDNENGPPLKRVKQEIESPPGSSRMIVYNDTRKTTNAPISTWVPPREDLTAKVKDETVQSVPQRKAQATAVIKSGFPLEKHLKKQAVPSMIPVTSSSIPQRNGILGLNSMILPPSAIQQALLKKMDVPTTTPSMSSTSSSQAQSSMNGVINGNNTEVEDKWTLLGRMIAMMAREIETRDPMSACELTRDLQQVIFQYNMKTLRPKENNSSSSSQ,not soluble
5,MFRRLGEKTTLYRAESPSQNSLASHHNSEVSLPSVDYSQEDRHSCNTLIGDEWSQNGDVIIQPLQKPSNTPTTQYERIITRREIANTESDLCKKLSLIVDLVSDFANDANRLYEGADELLKELRTKIRVYIYFLDVEMADVEKLLRFNVDRSTICDERIDWLLHFTKCHKEMRRVLNELSEEVCEDLESCLEMRAKGVIGKKPSSIILSTLSGMRNGMMTASKLLGCLPRQRA,not soluble
6,MFRRPDDDDDDYSGRKVIKPKPIAEKYAKKLGSEFSTGKTFVTGSDKSQKDFYGSQQVRNDVMKSSDSGGAPLTEDEKNKLSAKILKAEMKGDTDLVKKLKRKLESGISGDDEPPKSKSKEVTMMRRDREGNILPASSRRSDSDRHGEGSSRMRREYEKSQDLDSMVREEKTGTAGDQLRLFERSLIKSSKIRRHDDESVDDIAEMQKGKKKSDEKDKKRKEKESIKEHKRIERSFDDCSRCIDSSRLKKHNIIAVGINTYLAVVEWDGLDDEHLIIVPTQHCSSTIQLDENVWDEMRLWRKGLVAVWKSQNRDCIFFEMSRHVDSNPHVFIECVPVEQEIGDMASIYFKKAINECEGEYMDNKKLIETKDLRRQIPKGFSYFAVDFGLSNGFAHVIESHDHFPSTFATEIIAGMLDLPPKKWRKRETDEMSKQKSRAENFKKLWEPVDWTKRLKNDSTK,soluble
7,MFSLLRKSLKSPAPKKVVPSQRTVSVAGRQVPITVRENPRATRITLRIEPGGRALKLTIPMGLHHRQVDDFLERHQGWLEGKLLKFSPDDGLRPGATIDIRGISHRIEHTGSLRGLTHIAKDADGVAVLKVSGAPEHLRRRIATFLKKEAKADLERLVAIHGRAAGRPVRSISMKDTRSRWGSCSHDGNLSFSWRIVMAPDRVIDYLAAHEVAHLSEMNHGPKFWALCEKLCPHTSEAKDWLKRHGSKLHAIDFDLEHHHHHH,not soluble
8,MFSYSSSDWQRRFDEPEKPSRIIAHHDERGPFAKDRARVLHSAALRRLADKTQVVGPRDGDNPRTRLTHSLEVAQIARGIGTGLGLDADLCEMAGLTHDIGHPPYGHNGEKALAEIAQDCGGFEGNAQTLRILSKLEPKIVDDHDQSYGLNLTRAALDAACKYPRTKTNPDGSVNKKYGCYDEDAHILQWVRQGHEDTSACVEAQAMDFSDDIAYSVHDVEDGIVSGRVHLGVLWDFVELAELAEKGARAFGGTPEALVDAADHLRELPIISAAADFDGSLRGYVDLKAMTSQLVGRYVGAVIEASRAANPTGVFGRSTGQVVVPDQVLAEVTLLKTIAVLYVMDDPTHRQRQDRQRERIYRVYDYLVAGGRGALDPMFRLWWEQAESEAQRQRVIIDNISSMTESRLERVAKQSAELSSFMG,not soluble
9,MFTIRKATSDDCKLINELANQVFPATYKEILSTEQLDYMMEWMYAPENIRKQMEEEGHVYFIAYQGDEPCGYVSVQPQDADVFHLQKIYVLPGFQGAHLGSKLFDHAVQYIKEIHPSPCLMELNVNRNNKALHFYEHKGMKKLREGDFPIGNGYYMNDYIMGLEL,not soluble
10,MFVDKNGVNMEKKLVKQQLLTGERALFASKDLRIEDSIFDDGESPLKESSNIELVNSSFKWKYPLWYCNNVNVKDCYFFEMGRAGVWYTNDINVEDTIIEAPKNFRRCNRLGLKNVEFVNAEETLWSCDNVTMTNVVAKGNYFAMNSNDMKIDGLKLVGNYPFDGSKNLEIRNSRLMSKDAFWNAENITVYDSYISGEYLGWNSKNLTFINCTIESLQGLCYIDNLVMKNCKLINTTLAFEYSTVDADITSRVDSVLNPTSGTITADSIDKLIIEKDKVDPSLTKIVCRN,not soluble
11,MGAQSHSLEITSSVSAEKIFSGIVLDVDTVIPKAATGAYKSVEVKGDGGAGTVRIITLPEGSPITTMTVRTDAVNKEALSYDSTVIDGDILLGFIESIETHMVVVPTADGGSITKTTAIFHTKGDAVVPEENIKFADAQNTALFKAIEAYLIAN,soluble
12,MGCAGSTQSQADGSVKKIRKPKPWKHTQPITKAELMKLREEFWDTAPHYGGRKEIWDALRAAAEADISLAQAIVDSAGVIVQNTDLTVCYDERGAKYELPKYVLSEPTNLEEEN,not soluble
